The chains are these.
B1: Break repair meiotic recombinase recruitment factor 1 (Homo sapiens), Q0VDD7 (parent)
chain: MTKRKKLRTSGEGLCPPKPLKNPRLGDFYGDPQSSMLGCLHHPEEPEGKLGPVPSTQQHGEEPGKAVSSSPDEETGSPCRLLRQPEKEPAPLPPSQNSFGRFVPQFAKSRKTVTRKEEMKDEDRGSGAFSLETIAESSAQSPGCQLLVETLGVPLQEATELGDPTQADSARPEQSSQSPVQAVPGSGDSQPDDPPDRGTGLSASQRASQDHLSEQGADDSKPETDRVPGDGGQKEHLPSIDSEGEKPDRGAPQEGGAQRTAGAGLPGGPQEEGDGVPCTPASAPTSGPAPGLGPASWCLEPGSVAQGSPDPQQTPSRMGREGEGTHSSLGCSSLGMVVIADLSTDPTELEERALEVAGPDGQASAISPASPRRKAADGGHRRALPGCTSLTGETTGESGEAGQDGKPPGDVLVGPTASLALAPGSGESMMGAGDSGHASPDTGPCVNQKQEPGPAQEEAELGGQNLERDLEGFRVSPQASVVLEHREIADDPLQEPGAQQGIPDTTSELAGQRDHLPHSADQGTWADSLAVELDFLLDSQIQDALDASDFEAPPEQLFPSGNKPGPCWPGPSSHANGDPVAVAKAQPRTFVGIQASEASRMEDATNVVRGLIVELSNLNRLIMGTHRDLEAFKRLNYRKTKLGGKAPLPYPSKGPGNIPRGDPPWREL
partner: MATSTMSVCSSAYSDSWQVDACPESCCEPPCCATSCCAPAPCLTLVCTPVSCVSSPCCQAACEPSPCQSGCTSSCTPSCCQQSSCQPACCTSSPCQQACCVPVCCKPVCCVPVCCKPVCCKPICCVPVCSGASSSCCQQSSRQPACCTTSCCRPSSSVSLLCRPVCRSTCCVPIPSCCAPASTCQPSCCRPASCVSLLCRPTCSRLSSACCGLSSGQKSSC
B2: Stabilizer of axonemal microtubules 1 (Homo sapiens), Q8IYX7 (parent)
chain: MKTKCICELCSCGRHHCPHLPTKIYDKTEKPCLLSEYTENYPFYHSYLPRESFKPRREYQKGPIPMEGLTTSRRDFGPHKVAPVKVHQYDQFVPSEENMDLLTTYKKDYNPYPVCRVDPIKPRDSKYPCSDKMECLPTYKADYLPWNQPRREPLRLEHKYQPASVRFDNRTTHQDDYPIKGLVKTISCKPLAMPKLCNIPLEDVTNYKMSYVAHPVEKRFVHEAEKFRPCEIPFESLTTQKQSYRGLMGEPAKSLKPLARPPGLDMPFCNTTEFRDKYQAWPMPRMFSKAPITYVPPEDRMDLLTTVQAHYTCPKGAPAQSCRPALQIKKCGRFEGSSTTKDDYKQWSSMRTEPVKPVPQLDLPTEPLDCLTTTRAHYVPHLPINTKSCKPHWSGPRGNVPVESQTTYTISFTPKEMGRCLASYPEPPGYTFEEVDALGHRIYKPVSQAGSQQSSHLSVDDSENPNQRELEVLA
partner: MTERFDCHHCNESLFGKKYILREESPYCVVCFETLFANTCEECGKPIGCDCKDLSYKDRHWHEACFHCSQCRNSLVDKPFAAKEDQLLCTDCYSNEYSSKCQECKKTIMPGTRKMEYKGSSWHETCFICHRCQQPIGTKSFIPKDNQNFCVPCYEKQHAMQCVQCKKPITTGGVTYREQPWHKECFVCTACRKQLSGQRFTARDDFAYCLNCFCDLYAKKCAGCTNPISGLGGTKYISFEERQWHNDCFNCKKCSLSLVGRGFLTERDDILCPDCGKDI
B3: Keratin, type II cytoskeletal 79 (Homo sapiens), Q5XKE5 (parent)
chain: MRSSVSRQTYSTKGGFSSNSASGGSGSQARTSFSSVTVSRSSGSGGGAHCGPGTGGFGSRSLYNLGGHKSISVSVAGGALLGRALGGFGFGSRAFMGQGAGRQTFGPACPPGGIQEVTVNQSLLTPLHVEIDPEIQRVRTQEREQIKTLNNKFASFIDKVRFLEQQNKVLETKWALLQEQGQNLGVTRNNLEPLFEAYLGSMRSTLDRLQSERGRLDSELRNVQDLVEDFKNKYEDEINKHTAAENEFVVLKKDVDAAYMGRMDLHGKVGTLTQEIDFLQQLYEMELSQVQTHVSNTNVVLSMDNNRNLDLDSIIAEVKAQYELIAQRSRAEAEAWYQTKYEELQVTAGKHGDNLRDTKNEIAELTRTIQRLQGEADAAKKQCQQLQTAIAEAEQRGELALKDAQKKLGDLDVALHQAKEDLTRLLRDYQELMNVKLALDVEIATYRKLLESEESRMSGECPSAVSISVTGNSTTVCGGGAASFGGGISLGGSGGATKGGFSTNVGYSTVKGGPVSAGTSILRKTTTVKTSSQRY
partner: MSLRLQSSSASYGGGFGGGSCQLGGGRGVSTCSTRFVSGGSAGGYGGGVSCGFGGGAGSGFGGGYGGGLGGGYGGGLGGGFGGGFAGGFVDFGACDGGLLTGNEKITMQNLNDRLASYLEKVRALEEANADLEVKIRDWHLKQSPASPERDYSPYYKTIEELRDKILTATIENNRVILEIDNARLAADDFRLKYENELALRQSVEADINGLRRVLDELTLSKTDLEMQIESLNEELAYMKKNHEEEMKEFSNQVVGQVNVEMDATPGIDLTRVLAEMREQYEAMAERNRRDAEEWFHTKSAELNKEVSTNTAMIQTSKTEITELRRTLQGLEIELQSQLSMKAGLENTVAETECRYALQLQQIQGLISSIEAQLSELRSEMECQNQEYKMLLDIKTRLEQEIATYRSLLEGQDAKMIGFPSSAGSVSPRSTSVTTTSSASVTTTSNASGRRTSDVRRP
B4: E3 ubiquitin-protein ligase CCNB1IP1 (Homo sapiens), Q9NPC3 (parent)
chain: MSLCEDMLLCNYRKCRIKLSGYAWVTACSHIFCDQHGSGEFSRSPAICPACNSTLSGKLDIVRTELSPSEEYKAMVLAGLRPEIVLDISSRALAFWTYQVHQERLYQEYNFSKAEGHLKQMEKIYTQQIQSKDVELTSMKGEVTSMKKVLEEYKKKFSDISEKLMERNRQYQKLQGLYDSLRLRNITIANHEGTLEPSMIAQSGVLGFPLGNNSKFPLDNTPVRNRGDGDGDFQFRPFFAGSPTAPEPSNSFFSFVSPSRELEQQQVSSRAFKVKRI

In the first test the parent is B1. The conditions noted are these: with kr103_human KRTAP10-3, P60369.
Regarding Q500R, the “effect of a mutation on the interaction” value is given as “with no effect”.

Another test covers variants of B2. Particulars: with fhl2_human FHL2, Q14192.
For D118G, the “effect of a mutation on the interaction” value is “disrupting interaction strength”. Regarding N464K, the “effect of a mutation on the interaction” value is “disrupting interaction strength”.

Variants of B3 are the subject of another test. The conditions noted are these: with KRT13, P13646.
R30C: the “effect of a mutation on the interaction” value is “with no effect”. R161Q: the “effect of a mutation on the interaction” value is “with no effect”. R213W: the “effect of a mutation on the interaction” value was “with no effect”. As to D217Y, the “effect of a mutation on the interaction” value is “with no effect”. The same measure, in the same setting: then G86E, with “with no effect”; and H266R, with “with no effect”.

The variants in another test derive from B4. The conditions noted are these: with aapk2_human PRKAA2, P54646.
Chain of aapk2_human PRKAA2, P54646 (P54646 whole entry, looked up): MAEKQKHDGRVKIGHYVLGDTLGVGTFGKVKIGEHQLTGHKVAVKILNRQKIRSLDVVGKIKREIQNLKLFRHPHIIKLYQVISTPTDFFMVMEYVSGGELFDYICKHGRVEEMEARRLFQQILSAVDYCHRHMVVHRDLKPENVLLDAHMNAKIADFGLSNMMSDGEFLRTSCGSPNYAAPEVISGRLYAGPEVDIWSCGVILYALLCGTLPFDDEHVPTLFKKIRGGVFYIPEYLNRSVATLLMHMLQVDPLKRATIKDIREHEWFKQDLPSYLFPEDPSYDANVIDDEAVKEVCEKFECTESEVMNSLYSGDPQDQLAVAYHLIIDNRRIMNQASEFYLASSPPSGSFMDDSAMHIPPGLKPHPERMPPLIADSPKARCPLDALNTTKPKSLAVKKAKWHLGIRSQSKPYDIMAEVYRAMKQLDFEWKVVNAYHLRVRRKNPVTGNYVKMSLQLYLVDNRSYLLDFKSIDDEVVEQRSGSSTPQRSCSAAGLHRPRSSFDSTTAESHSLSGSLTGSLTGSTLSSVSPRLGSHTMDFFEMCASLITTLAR
On to F41L, for which the “effect of a mutation on the interaction” value was “with no effect”. With Y106H, the “effect of a mutation on the interaction” value is “with no effect”. T187A: the “effect of a mutation on the interaction” value is reported as “with no effect”. N212D: the “effect of a mutation on the interaction” value is recorded as “with no effect”. As for R104H, the “effect of a mutation on the interaction” value was “disrupting interaction strength”.

Another test covers variants of B4. Particulars: with KRT15, P19012.
Chain of KRT15, P19012 (P19012 whole entry): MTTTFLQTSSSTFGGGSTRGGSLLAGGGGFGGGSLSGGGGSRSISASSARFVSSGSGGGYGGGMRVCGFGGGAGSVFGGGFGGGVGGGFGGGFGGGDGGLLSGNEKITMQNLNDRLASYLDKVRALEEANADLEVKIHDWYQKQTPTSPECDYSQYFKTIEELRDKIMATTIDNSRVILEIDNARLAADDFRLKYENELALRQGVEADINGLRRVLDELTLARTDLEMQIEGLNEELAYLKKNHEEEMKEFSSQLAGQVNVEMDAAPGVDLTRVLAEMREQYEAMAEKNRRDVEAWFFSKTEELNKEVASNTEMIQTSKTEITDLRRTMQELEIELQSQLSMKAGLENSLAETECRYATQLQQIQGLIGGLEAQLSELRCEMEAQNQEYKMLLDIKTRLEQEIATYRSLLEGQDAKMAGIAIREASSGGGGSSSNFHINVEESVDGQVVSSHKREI
Take F41L: the “effect of a mutation on the interaction” value was “with no effect”.

For the variant Y106H, the “effect of a mutation on the interaction” value is “disrupting interaction strength”. For T187A, the “effect of a mutation on the interaction” value is listed as “with no effect”.

Take N212D: the “effect of a mutation on the interaction” value is “with no effect”. For the variant R104H, the “effect of a mutation on the interaction” value is “with no effect”.

The next test covers variants of B4. The conditions noted are these: with keap1_human KEAP1, Q14145.
Chain of keap1_human KEAP1, Q14145 (Q14145 whole entry): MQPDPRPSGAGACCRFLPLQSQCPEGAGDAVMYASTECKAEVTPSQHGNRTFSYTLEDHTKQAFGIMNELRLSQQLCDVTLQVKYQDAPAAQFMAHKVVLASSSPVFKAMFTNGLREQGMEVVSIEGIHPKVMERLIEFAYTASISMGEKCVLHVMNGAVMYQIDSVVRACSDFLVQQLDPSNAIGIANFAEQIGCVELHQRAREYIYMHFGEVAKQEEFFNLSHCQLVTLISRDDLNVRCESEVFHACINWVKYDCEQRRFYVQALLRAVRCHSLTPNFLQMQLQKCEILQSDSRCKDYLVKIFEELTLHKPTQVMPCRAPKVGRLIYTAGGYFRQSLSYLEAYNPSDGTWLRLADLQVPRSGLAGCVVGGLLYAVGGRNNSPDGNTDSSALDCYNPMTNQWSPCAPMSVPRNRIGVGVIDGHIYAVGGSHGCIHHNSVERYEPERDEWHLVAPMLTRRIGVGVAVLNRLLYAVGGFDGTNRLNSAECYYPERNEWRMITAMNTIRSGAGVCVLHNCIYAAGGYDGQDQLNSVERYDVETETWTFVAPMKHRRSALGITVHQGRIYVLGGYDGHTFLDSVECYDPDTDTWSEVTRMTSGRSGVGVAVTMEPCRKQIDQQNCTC
With F41L, the “effect of a mutation on the interaction” value is given as “with no effect”.

Consider Y106H, for which the “effect of a mutation on the interaction” value was “with no effect”. Turning to T187A, the “effect of a mutation on the interaction” value is recorded as “with no effect”. In the case of N212D, the “effect of a mutation on the interaction” value is recorded as “with no effect”.

R104H: the “effect of a mutation on the interaction” value is “with no effect”.

These data come from IntAct's records for PubMed 31515488.
